Measurements from publication PMC2673437 (Nucleic Acids Research, 2009).
Read-outs that look alike come from different tables or passages of the source. Where no end group is shown, it is not given here. The star is where a group is joined. Biotin = O=C1N[C@H]2[C@H](CS[C@H]2CCCCC(=O)*)N1

T1: Bacillus stearothermophilus DnaB helicase (B. stearothermophilus, UniProt Q9X4C9 1-454)
T1 sequence (looked up): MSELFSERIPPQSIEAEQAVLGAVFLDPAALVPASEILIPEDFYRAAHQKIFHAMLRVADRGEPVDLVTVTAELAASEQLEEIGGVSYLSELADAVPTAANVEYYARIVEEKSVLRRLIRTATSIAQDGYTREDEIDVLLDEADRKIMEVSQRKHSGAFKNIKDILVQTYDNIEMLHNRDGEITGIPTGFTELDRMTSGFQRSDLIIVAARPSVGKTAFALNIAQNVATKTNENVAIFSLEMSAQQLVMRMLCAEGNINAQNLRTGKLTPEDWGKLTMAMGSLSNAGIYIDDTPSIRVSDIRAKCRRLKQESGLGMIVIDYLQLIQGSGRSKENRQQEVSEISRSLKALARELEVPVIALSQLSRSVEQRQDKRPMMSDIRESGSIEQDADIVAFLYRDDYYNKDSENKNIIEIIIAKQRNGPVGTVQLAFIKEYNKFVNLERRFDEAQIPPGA

B1: DnaI-N123 (residues 1-123 of B. subtilis DnaI) (domain or fragment, UniProt P06567 1-123, looked up)
chain: MEPIGRSLQGVTGRPDFQKRLEQMKEKVMKDQDVQAFLKENEEVIDQKMIEKSLNKLYEYIEQSKNCSYCSEDENCNNLLEGYHPKLVVNGRSIDIEYYECPVKRKLDQQKKQQSLMKSMYIQ
B2: DnaI-N106 (N-terminal 106 residues of B. subtilis DnaI) (domain or fragment, UniProt P06567 1-106, looked up)
chain: MEPIGRSLQGVTGRPDFQKRLEQMKEKVMKDQDVQAFLKENEEVIDQKMIEKSLNKLYEYIEQSKNCSYCSEDENCNNLLEGYHPKLVVNGRSIDIEYYECPVKRK
B3: DnaI-N132 (residues 1-132 of B. subtilis DnaI, C-terminal His6) (domain or fragment, UniProt P06567 1-132, looked up)
chain: MEPIGRSLQGVTGRPDFQKRLEQMKEKVMKDQDVQAFLKENEEVIDQKMIEKSLNKLYEYIEQSKNCSYCSEDENCNNLLEGYHPKLVVNGRSIDIEYYECPVKRKLDQQKKQQSLMKSMYIQQDLLGATFQ

How the values were obtained:
[1] = target: T1, Bacillus stearothermophilus DnaB …; assay: SPR
[2] = target: T1, Bacillus stearothermophilus DnaB …; assay: SPR; remark: listed apart in the source

| Binder | Kd [1] | Kd [2] | stoichiometry N [2] |
| --- | --- | --- | --- |
| Biotin-SGMEPIGRSLQGVTGRPDFQ [N-terminally biotinylated DnaI-N-peptide (DnaI residues 1-18, preceded by biotin-Ser-Gly)] | ≥ 50 µM | – | – |
| B1 | – | 7.3 µM | 1.7 molecules per Bst DnaB subunit |
| B2 | – | 18.5 µM | 1.8 molecules per Bst DnaB subunit |
| B3 | – | 0.65 µM | 0.8 molecules per Bst DnaB subunit |
| MEPIGRSLQGVTGRPDFQ [unmodified peptide corresponding to residues 1-18 of DnaI] | – | > 140 µM | – |
